According to publication PMC10057379:
Where no end group is shown, it is not given here.

How the values were obtained:
NRP-1 (Homo sapiens) = NRP-1 (Homo sapiens) (UniProt O14786); experiment: SPR; details: cited from earlier work
[1] = molecular target: Neuropilin-1 (NRP-1) (human (endogenous in THP-1)) (UniProt O14786)

| uptake of AGuIX@PS@KDKPPR nanoparticles (1 µM, 4 h or 24 h, 37 °C) by M0, M1 and M2 macrophages, porphyrin fluorescence of the cell lysate; control: AGuIX@PS@scramble, 24 h (fold (M0 and M2 against M1, 24 h)) [1] | Molecule | Kd (NRP-1 (Homo sapiens)) [µM] |
| --- | --- | --- |
| – | KDKPPR peptide | 4.7 |
| 3 | KDKPPR (also: grafted onto AGuIX nanoparticles with porphyrin and gadolinium) [KDKPPR ligand peptide on AGuIX@PS@KDKPPR nanoparticles] | – |
